Results taken from article PMC3172300, “Modulation of Catalytic Activity in Multi-Domain Protein Tyrosine Phosphatases” (PLoS ONE, 2011).
Structures can show the parent of a compound that is named as a salt. Where two headings read alike, the source gives them in different places. Square brackets hold non-standard residues; d marks the D form. Ends that are not written are not given here. pY = N[C@@H](Cc1ccc(OP(=O)(O)O)cc1)C(=O)O

Experiments:
[1] = target: T1, DLAR D1 (Drosophila melanogaster, UniProt P16621); assay: PNC binding by fluorescence quenching, DLAR D1
T1 construct: DLAR 1448-1746; His tag (pET-15b or pET-22b); made in house; host or cells: E. coli BL21(DE3)
T1 sequence (P16621 1448-1746): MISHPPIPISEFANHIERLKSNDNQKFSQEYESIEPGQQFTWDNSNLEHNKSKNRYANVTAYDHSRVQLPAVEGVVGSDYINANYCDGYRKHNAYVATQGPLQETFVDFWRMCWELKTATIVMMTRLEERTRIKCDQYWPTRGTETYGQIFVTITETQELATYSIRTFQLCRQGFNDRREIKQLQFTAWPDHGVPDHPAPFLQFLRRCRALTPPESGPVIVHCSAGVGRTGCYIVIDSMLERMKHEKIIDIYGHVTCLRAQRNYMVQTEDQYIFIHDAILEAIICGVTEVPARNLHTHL
Description: (§1) 5.0 µM of recombinant protein was titrated with increasing concentrations of PNC (Sigma-Aldrich) in 25 mM citrate buffer pH 6.5, 100 mM NaCl and 2 mM DTT. The closing of the WPD loop leads to the quenching of the intrinsic tryptophan fluorescence. Fluorescence quenching was monitored at 350 nm (emission maximum) for recombinant PTP domains and the dissociation constants were calculated by fitting the data to a hyperbolic equation of ligand binding using the nonlinear regression modules of Sigma Plot software (Systat Software Inc.).
(§2) To evaluate the differences in the phosphotyrosine binding pockets of the two domains of DLAR and PTP99A, a small molecule probe para-Nitrocatecholsulfate (2-hydroxy-5-nitrophenyl sulfate; PNC) was used. PNC acts as a small molecule competitive inhibitor of the PTPs as it mimics the phosphotyrosine residue. PNC binding was evaluated by monitoring the fluorescence quenching of the tryptophan residues in the WPD loop. […] PNC binding to the DLAR D1D2 construct fitted well to the independent ligand binding model for two non-interacting sites.

[2] = target: T2, DLAR D2 (Drosophila melanogaster, UniProt P16621); assay: PNC binding by fluorescence quenching, DLAR D2; conditions: 5.0 µM protein, 25 mM citrate pH 6.5; fluorescence quenching 350 nm; single site model
T2 construct: DLAR 1728-2029; His tag (pET-15b or pET-22b); made in house; host or cells: E. coli BL21(DE3)
T2 sequence (P16621 1728-2029): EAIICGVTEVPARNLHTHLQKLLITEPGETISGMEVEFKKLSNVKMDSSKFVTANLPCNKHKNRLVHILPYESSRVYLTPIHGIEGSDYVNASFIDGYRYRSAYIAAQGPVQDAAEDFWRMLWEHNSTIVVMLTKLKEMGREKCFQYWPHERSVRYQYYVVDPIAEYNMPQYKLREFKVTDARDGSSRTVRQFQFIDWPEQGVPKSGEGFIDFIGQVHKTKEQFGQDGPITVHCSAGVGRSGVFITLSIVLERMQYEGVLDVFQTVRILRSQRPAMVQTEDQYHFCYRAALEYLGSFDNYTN
Description: as §1, §2

[3] = target: T3, DLAR D1D2 (Drosophila melanogaster, UniProt P16621); assay: PNC binding by fluorescence quenching, DLAR D1D2; conditions: 5.0 µM protein, 25 mM citrate pH 6.5, fluorescence quenching 350 nm, independent two site model
T3 construct: DLAR 1448-2029; His tag (pET-15b or pET-22b); made in house; host or cells: E. coli BL21(DE3)
T3 sequence (P16621 1448-2029): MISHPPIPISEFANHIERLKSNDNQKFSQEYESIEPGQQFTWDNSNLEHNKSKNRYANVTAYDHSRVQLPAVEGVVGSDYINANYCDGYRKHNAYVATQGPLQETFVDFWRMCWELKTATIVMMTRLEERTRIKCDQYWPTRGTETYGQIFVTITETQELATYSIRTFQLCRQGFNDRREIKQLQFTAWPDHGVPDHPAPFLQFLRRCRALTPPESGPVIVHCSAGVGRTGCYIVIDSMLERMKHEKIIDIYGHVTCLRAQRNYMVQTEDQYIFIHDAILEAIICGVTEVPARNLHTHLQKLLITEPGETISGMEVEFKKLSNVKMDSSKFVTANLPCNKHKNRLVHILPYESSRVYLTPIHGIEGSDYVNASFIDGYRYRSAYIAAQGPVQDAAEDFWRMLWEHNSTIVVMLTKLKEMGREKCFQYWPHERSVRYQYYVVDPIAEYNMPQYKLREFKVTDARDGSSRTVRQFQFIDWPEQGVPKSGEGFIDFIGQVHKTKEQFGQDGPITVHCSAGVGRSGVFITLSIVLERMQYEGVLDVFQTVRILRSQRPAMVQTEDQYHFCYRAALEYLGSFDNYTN
Description: as §1, §2

[4] = target: T4, PTP99A D2 (Drosophila melanogaster, UniProt P35832); assay: PNC binding by fluorescence quenching, PTP99A D2
T4 sequence (P35832 740-1050): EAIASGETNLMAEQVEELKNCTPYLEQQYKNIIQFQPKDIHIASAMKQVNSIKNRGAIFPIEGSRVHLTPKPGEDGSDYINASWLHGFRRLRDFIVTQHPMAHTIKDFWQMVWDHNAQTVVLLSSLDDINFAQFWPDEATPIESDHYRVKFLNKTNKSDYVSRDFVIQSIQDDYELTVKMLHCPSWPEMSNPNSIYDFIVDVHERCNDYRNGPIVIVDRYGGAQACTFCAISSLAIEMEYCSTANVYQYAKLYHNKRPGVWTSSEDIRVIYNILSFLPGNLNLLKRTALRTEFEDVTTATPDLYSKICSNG
Description: as §1, §2

[5] = target: T5, PTP99A D1D2 (Drosophila melanogaster, UniProt P35832); assay: PNC binding by fluorescence quenching, PTP99A D1D2; conditions: 5.0 µM protein, 25 mM citrate pH 6.5; fluorescence quenching 350 nm; independent two site model; read-out: Kd1
T5 sequence (P35832 450-1050): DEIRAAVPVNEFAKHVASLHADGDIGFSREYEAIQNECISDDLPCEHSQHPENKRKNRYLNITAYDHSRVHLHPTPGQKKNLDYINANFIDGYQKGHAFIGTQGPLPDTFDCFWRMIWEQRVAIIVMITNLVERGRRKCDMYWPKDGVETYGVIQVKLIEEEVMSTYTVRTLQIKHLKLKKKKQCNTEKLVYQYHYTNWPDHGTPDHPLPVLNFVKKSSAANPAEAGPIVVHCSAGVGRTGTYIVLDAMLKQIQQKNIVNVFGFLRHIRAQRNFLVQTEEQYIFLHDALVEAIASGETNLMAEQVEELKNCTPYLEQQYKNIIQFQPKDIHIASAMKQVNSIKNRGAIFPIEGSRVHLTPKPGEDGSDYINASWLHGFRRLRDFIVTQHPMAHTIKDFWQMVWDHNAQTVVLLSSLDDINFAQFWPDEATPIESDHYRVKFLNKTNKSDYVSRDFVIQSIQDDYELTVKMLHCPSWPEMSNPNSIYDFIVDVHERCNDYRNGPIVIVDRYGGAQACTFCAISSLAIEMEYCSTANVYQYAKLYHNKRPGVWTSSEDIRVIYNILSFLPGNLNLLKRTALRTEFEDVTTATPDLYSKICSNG
Description: as §1, §2

[6] = target: T6, PTP99A D1 (Drosophila melanogaster, UniProt P35832); assay: PNC binding by fluorescence quenching, PTP99A D1; parameters: PTP99A 450-756; His tag (pET-15b or pET-22b); made in house; host or cells: E. coli BL21(DE3)
T6 sequence (P35832 450-756): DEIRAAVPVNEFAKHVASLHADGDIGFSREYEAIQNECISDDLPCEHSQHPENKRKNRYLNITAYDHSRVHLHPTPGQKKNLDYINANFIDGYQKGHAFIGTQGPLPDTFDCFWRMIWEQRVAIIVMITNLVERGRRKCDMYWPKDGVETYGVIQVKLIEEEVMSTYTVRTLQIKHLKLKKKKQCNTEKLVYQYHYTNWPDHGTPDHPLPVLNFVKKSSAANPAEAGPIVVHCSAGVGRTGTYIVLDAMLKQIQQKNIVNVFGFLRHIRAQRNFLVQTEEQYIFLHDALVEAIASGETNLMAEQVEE
Description: as §1, §2

[7] = target: DLAR D1 (membrane-proximal PTP domain of DLAR) (Drosophila melanogaster); assay: SPR; Biacore-2000; DLAR PTP domains immobilised on CM5 chips by amine coupling; peptides as analyte at 50-700 µM; 25°C; 10 mM HEPES pH 8.0, 150 mM NaCl, 10 mM DTT, 3 mM EDTA; 5 µL/min; two independent sites fit for the double domain constructs, single-site fit for DLAR D1 and DLAR D2
[8] = target: DLAR D1D2 (tandem PTP domains of Drosophila Leukocyte antigen Related) (Drosophila melanogaster); assay: as above
[9] = target: DLAR D1D2HSS (Cys to Ser mutation in the D2 domain) (Drosophila melanogaster); assay: as above
[10] = target: DLAR D1HSS D2 (Cys to Ser mutation in the D1 domain) (Drosophila melanogaster); assay: as above
[11] = target: DLAR D2 (membrane-distal PTP domain of DLAR) (Drosophila melanogaster); assay: as above
[12] = 5.0 µM protein, 25 mM citrate pH 6.5, fluorescence quenching 350 nm, single site model

Q: For `O=[N+]([O-])c1ccc(O)c(OS(=O)(=O)O)c1` [PNC, 2-hydroxy-5-nitrophenyl sulfate], which Kd ([1]; 5.0 µM protein, 25 mM citrate buffer pH 6.5, 100 mM NaCl, 2 mM DTT, tryptophan fluorescence quenching 350 nm, single site model) is on record?
A: 235 µM

Q: What about the “relative PNC binding” value ([1]; two PTP domains of DLAR (D1 and D2) compared, fluorescence quenching) of the same molecule?
A: comparable affinities

Q: And the Kd [2]?
A: 214 µM

Q: And the Kd ([3]; read-out: Kd1)?
A: 160 µM

Q: What about the Kd ([3]; read-out: Kd2) of the same molecule?
A: 173 µM

Q: And the Kd [4, 12]?
A: 716 µM

Q: What about the “relative PNC binding” value ([4]; D2 domain of PTP99A compared to the other PTP domains, fluorescence quenching) of the same molecule?
A: much more poorly

Q: What about the Kd [5] of the same molecule?
A: 94.8 µM

Q: And the Kd [6, 12]?
A: 153 µM

Q: And the “relative PNC binding” value ([6]; D1 domain of PTP99A alone, fluorescence quenching)?
A: four times more favorable

Q: With TAEPD[pY]GALYE [Cuticle Peptide TAEPD(pY)GALYE] as the molecule, how does the Kd [7] read?
A: 94.6 µM

Q: What about the koff [7] of the same molecule?
A: 0.00176 s⁻¹

Q: What about the kon [7] of the same molecule?
A: 18.6 M⁻¹ s⁻¹

Q: What about the KD, first binding site [8] of the same molecule?
A: 313 µM

Q: What about the KD, second binding site [8] of the same molecule?
A: 2.02 µM

Q: What about the ka, first binding site [8] of the same molecule?
A: 32.6 M⁻¹ s⁻¹

Q: And the ka, second binding site [8]?
A: 16500 M⁻¹ s⁻¹

Q: What about the kd, first binding site [8] of the same molecule?
A: 0.0102 s⁻¹

Q: What about the kd, second binding site [8] of the same molecule?
A: 0.0333 s⁻¹

Q: And the KD, first binding site [9]?
A: 296 µM

Q: What about the KD, second binding site [9] of the same molecule?
A: 9.43 µM

Q: And the ka, first binding site [9]?
A: 51.7 M⁻¹ s⁻¹

Q: What about the ka, second binding site [9] of the same molecule?
A: 1.37 M⁻¹ s⁻¹

Q: And the kd, first binding site [9]?
A: 0.0153 s⁻¹

Q: What about the kd, second binding site [9] of the same molecule?
A: 1.3e-05 s⁻¹

Q: What about the KD, first binding site [10] of the same molecule?
A: 87.5 µM

Q: And the KD, second binding site [10]?
A: 1.87 µM

Q: And the ka, first binding site [10]?
A: 74.7 M⁻¹ s⁻¹

Q: What about the ka, second binding site [10] of the same molecule?
A: 28800 M⁻¹ s⁻¹

Q: And the kd, first binding site [10]?
A: 0.00654 s⁻¹

Q: What about the kd, second binding site [10] of the same molecule?
A: 0.054 s⁻¹

Q: And the Kd [11]?
A: 104 µM

Q: And the koff [11]?
A: 0.00552 s⁻¹

Q: What about the kon [11] of the same molecule?
A: 52.8 M⁻¹ s⁻¹
